This assay has as its target Lys^B29Atto655-insulin aspart (human) (UniProt P01308). Nature of the assay: single-molecule TIRF microscopy; 10 nM labelled insulin in solution binding to labelled insulin nonspecifically immobilised on a PLL-PEG passivated surface; no Zn^2+, no phenol; 10 mM Na2HPO4, 10 mM NaH2PO4, 5 mM NaCl, pH 7.32, room temperature; seven-state HMM, rate constants of each step between monomer and hexamer (kij: state i to state j).

“Lys^B29Atto655-insulin aspart (from UniProt P01308 90-110; P01308 25-54) (natural protein)” gave a k24 (association rate constant, dimer to tetramer) of 2e+08 M⁻¹ s⁻¹ and a k31 (dissociation rate constant, trimer to monomer) of 0.062 s⁻¹.

The record behind these values is PMC9932072.
